# Assay results as given in IntAct's records for PubMed 24183572.
# B1: Gamma-crystallin S (Homo sapiens), P22914 (parent)
# chain: MSKTGTKITFYEDKNFQGRRYDCDCDCADFHTYLSRCNSIKVEGGTWAVYERPNFAGYMYILPQGEYPEYQRWMGLNDRLSSCRAVHLPSGGQYKIQIFEKGDFSGQMYETTEDCPSIMEQFHMREIHSCKVLEGVWIFYELPNYRGRQYLLDKKEYRKPIDWGAASPAVQSFRRIVE
# partner: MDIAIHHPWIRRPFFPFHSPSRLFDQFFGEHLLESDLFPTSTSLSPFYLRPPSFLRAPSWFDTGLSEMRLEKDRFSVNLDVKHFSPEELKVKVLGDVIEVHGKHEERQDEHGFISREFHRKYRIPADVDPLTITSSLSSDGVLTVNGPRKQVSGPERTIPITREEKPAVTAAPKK
# Variants of: B1
# Conditions: with cryab_human CRYAB
row,effect of a mutation on the interaction,Variant
1,increasing interaction strength,MSKTGTKITFYEDKNFQVRRYDCDCDCADFHTYLSRCNSIKVEGGTWAVYERPNFAGYMYILPQGEYPEYQRWMGLNDRLSSCRAVHLPSGGQYKIQIFEKGDFSGQMYETTEDCPSIMEQFHMREIHSCKVLEGVWIFYELPNYRGRQYLLDKKEYRKPIDWGAASPAVQSFRRIVE [G18V]
